Laboratory results from US6353153B1, “Enhanced transport with a plastid membrane transport protein” (priority 1996, dated 2002).

Key:
[1] = test system: Lycopersicon esculentum; test: Seed size of transgenic plants carrying the CaMV-Bce44B-NOS transgene; format: in vivo; details: primary generation of transgenic plants
Source text: (§1) Transgenic plants (Brassica napus, Arabidopsis thaliana and Lycopersicon esculentum) with altered plastid protein transport capacity were produced by introducing a transgene construct consisting of DNA encoding the Bce44B protein and a 5′ untranslated region immediately upstream of the Bce44B coding sequence. Expression of the construct was obtained by linking the cauliflower mosaic virus 35S promoter (Odell, J. T. et al. (1985) Nature 313:810) upstream. Transcriptional termination was facilitated by the gene encoding nopaline synthase (NOS) found in Agrobacterium Ti plasmids or their derivatives such as pBI101 (Clontech). Construction of the 35S CAMV-Bce44B-NOS transgene construct is diagrammed in FIG. 6.
(§2) Agrobacterium strains containing the pEND4K-CAMV-Bce44B-NOS plasmid were used to transform plants following a leaf disc transformation protocol, such as the one described by Horsch et al. (1985) Science 227:1229), or by in planta methods which can include the seed transformation protocol reported by Feldmann and Marks (1987) Mol. Gen. Genet. […]

[2] = test system: Brassica napus; test: as above; format: in vivo; details: primary generation of transgenic plants
Source text: as §1, §2

[3] = test system: β-lactamase transport in E. coli MM52 (secAts); test: Sodium azide sensitivity of β-lactamase transport in MM52; format: cell-based, Escherichia coli; details: MM52 strain, 30° C., two hours, sodium azide 0 to 1 mM
Description: Overnight cultures of MM52-Bce44B, MM52-Oee1-Dhfr, MC4100-Bce44B, and MC4100-Oee1-Dhfr cells were used as inocula for parallel experiments. These freshly inoculated cultures were grown at 30° C. for two hours in media containing increasing concentrations of sodium azide (from 0 to 1 MM). Cells were then harvested, and normalized according to cell number before analysis. […] Azide sensitivity characteristics were firther assessed by growing both wild-type and mutant bacterial lines in the media containing 0.5 mM sodium azide for 0, 1 and 2 hr.
Sensitivity of the bacterial strains to sodium azide was determined in the same manner as outlined in Oliver el al. (1990) Proc. Natl. Acad. Sci. USA 87:8227. Changes to β-lactamase transport activity in response to sodium azide was used as a monitor of differences in the protein translocation activity of Bce44B- versus Oee1-Ohfr-expressing cells. […]
The pBCE44B and pOEEIDHFR plasmids were introduced into E. coli strain MM52 (Oliver and Beckwith, (1981) Cell 25:765) by electroporation using the BioRad Gene Pulser and the supplied protocols for E. coli strains. […] The plasmid-harboring MM52 strains were grown in LB-ampicillin broth and analyzed in the same manner as the JM109(DE3) strains described above.

B1: Bce44B: plastid transport protein, Brassica napus 44 kDa chloroplast envelope protein, member of Com44/Cim44, encoded by SEQ ID NO:1 (protein)
chain: MQTAMKTMMNQMNTQNSQFNNPGFPTGAGAGAGSPFPFPFPPQTSPTTSPFQPQSQSSGATVDLTATKVDRPPVSKPQPTPIPPTKSIEVYKPSVVVEENKAMKEEKNYAFEDVSPEETTKESPFSNYEEVSETSAPKETRLFDDVLQNGAAPANGATASDVFQSLGAGKGWAGGSVEVLEKMIEYPTFQKMLYPHLPEEMRNPESFKWVRKNPQYRQQLQDMLNNMSESGEWDKRMTETLKNFDPNSPEVKQGFDQLGLTPEEVISKIMENPDVSMAFQNPRVEAALMDCSENPMNIMKYQNDKEVMDVFNKISQLFPGLTG
B1 was tested, and the “seed size relative to wildtype counterparts or pEND4K-only control plants” value [1] was “approximately twice”, the “seed size relative to wildtype counterparts or pEND4K-only control plants” value [2] was “approximately twice” and the “sodium azide concentration at which precursor form of β-lactamase appears” value [3] was 0.25 to 0.375 mM.
